Targets include HLA-A*31:01; HLA-A*33:01; HLA-A*68:01; HLA-A*11:01; HLA-A*03:01.
Test in all cases: IEDB peptide-MHC binding, purified MHC/competitive/radioactivity; filed as Kd, often an IC50 or EC50 that approximates it; ≥ and ≤ were set here for values at or beyond the usual limits of such assays
The mark [1] stands for this setting: source organism: Vaccinia virus WR.
Where [2] appears, read: source organism: SARS coronavirus Tor2.
Setting [3] is: source organism: Dengue virus 3 Martinique/1243/1999.
[4] abbreviates: source organism: Dengue virus 2 Jamaica/1409/1983.
Where [5] appears, read: source organism: Lassa virus Josiah.
Where [6] appears, read: source organism: Mammarenavirus machupoense.
Where [7] appears, read: source organism: Mammarenavirus guanaritoense.
Setting [8] is: source organism: Mammarenavirus brazilense.

On to AAIDRQVSVK, for which the Kd (usually a measure of binding affinity in units of concentration) was 16500 nM with HLA-A*31:01 (setting [1]); at least 70000 nM in the assay with HLA-A*33:01 (setting [1]); 693 nM in the assay with HLA-A*68:01 (setting [1]); 10.6 nM in the assay with HLA-A*11:01 (setting [1]); 257 nM with HLA-A*03:01 (setting [1]).

AALDGTFQR: the Kd in the assay with HLA-A*31:01 (setting [1]) was 36.4 nM; with HLA-A*33:01 (setting [1]), 177 nM; with HLA-A*68:01 (setting [1]), 1.95 nM; with HLA-A*11:01 (setting [1]), 2.62 nM; in the assay with HLA-A*03:01 (setting [1]), 6210 nM.

As for AAYYFMKFRR, the Kd with HLA-A*31:01 (setting [2]) is 41 nM; with HLA-A*33:01 (setting [2]) it was 277 nM; in the assay with HLA-A*68:01 (setting [2]), 79.2 nM; with HLA-A*11:01 (setting [2]), 132 nM; with HLA-A*03:01 (setting [2]), 3050 nM.

Consider ALINLVQYR, for which the Kd in the assay with HLA-A*31:01 (setting [1]) was 137 nM; with HLA-A*33:01 (setting [1]) it was 17400 nM; in the assay with HLA-A*68:01 (setting [1]), 258 nM; with HLA-A*11:01 (setting [1]), 3920 nM; with HLA-A*03:01 (setting [1]), 6500 nM.

In the case of ALLALNDMGK, the Kd in the assay with HLA-A*11:01 (setting [3]) came out at 196 nM; in the assay with HLA-A*03:01 (setting [3]), 28.4 nM.

Take AQPLPQRQKK: the equilibrium dissociation constant (Kd) is at least 32700 nM in the assay with HLA-A*31:01 (setting [2]); at least 27500 nM with HLA-A*33:01 (setting [2]); at least 70200 nM with HLA-A*68:01 (setting [2]); 1230 nM in the assay with HLA-A*11:01 (setting [2]); at least 33400 nM with HLA-A*03:01 (setting [2]).

In the case of ASANLAATK, the Kd with HLA-A*31:01 (setting [2]) is 1030 nM; with HLA-A*33:01 (setting [2]), at least 77700 nM; with HLA-A*68:01 (setting [2]), 78.3 nM; with HLA-A*11:01 (setting [2]) it was 14.4 nM; with HLA-A*03:01 (setting [2]) it was 77.1 nM.

With ASITPNNLNK, the equilibrium dissociation constant (Kd) was 47.6 nM with HLA-A*31:01 (setting [1]); at least 29800 nM in the assay with HLA-A*33:01 (setting [1]); 6.94 nM in the assay with HLA-A*68:01 (setting [1]); 1.11 nM in the assay with HLA-A*11:01 (setting [1]); 1.29 nM with HLA-A*03:01 (setting [1]).

For the sequence ASKKDKLTVY, the Kd with HLA-A*31:01 (setting [1]) is 5290 nM; with HLA-A*33:01 (setting [1]), at least 70000 nM; with HLA-A*68:01 (setting [1]), at least 70200 nM; in the assay with HLA-A*11:01 (setting [1]) it was 1220 nM; in the assay with HLA-A*03:01 (setting [1]), 6590 nM.

ASLPTYLSSR: the Kd in the assay with HLA-A*31:01 (source organism: Dengue virus 4 Philippines/H241/1956) stood at 7.6 nM.

For the sequence ASMGFKVTTR, the Kd with HLA-A*31:01 (setting [1]) was found to be 0.416 nM; with HLA-A*33:01 (setting [1]), 532 nM; in the assay with HLA-A*68:01 (setting [1]), 15.4 nM; in the assay with HLA-A*11:01 (setting [1]), 0.174 nM; in the assay with HLA-A*03:01 (setting [1]), 14 nM.

For ATIQRFSSLR, the Kd with HLA-A*31:01 (setting [1]) was 0.626 nM; with HLA-A*33:01 (setting [1]), 244 nM; with HLA-A*68:01 (setting [1]), 6.84 nM; with HLA-A*11:01 (setting [1]) it was 4.64 nM; with HLA-A*03:01 (setting [1]), 23.4 nM.

Turning to CTGKFKIVK, the Kd with HLA-A*11:01 (setting [4]) is 98.3 nM.

In the case of DAHKKNLYDH, the Kd with HLA-A*31:01 (setting [5]) is 3430 nM; in the assay with HLA-A*33:01 (setting [5]) it was at least 70000 nM; in the assay with HLA-A*68:01 (setting [5]), at least 70100 nM; with HLA-A*11:01 (setting [5]) it was at least 69700 nM; with HLA-A*03:01 (setting [5]), at least 70000 nM.

As for DILGVLTIK, the Kd with HLA-A*31:01 (setting [1]) came out at 12600 nM; with HLA-A*33:01 (setting [1]), 194 nM; with HLA-A*68:01 (setting [1]), 343 nM; with HLA-A*11:01 (setting [1]) it was 1120 nM; in the assay with HLA-A*03:01 (setting [1]), 714 nM.

Turning to DIQQWEPSR, in the assay with HLA-A*33:01 (setting [4]), the Kd was 113 nM.

On to DLPVWLAYR, for which the Kd with HLA-A*33:01 (setting [4]) is 4 nM.

Consider DSVKSILKWH, for which the Kd is 2650 nM in the assay with HLA-A*31:01 (setting [6]); at least 33100 nM with HLA-A*33:01 (setting [6]); at least 70100 nM in the assay with HLA-A*68:01 (setting [6]); at least 69700 nM with HLA-A*11:01 (setting [6]); at least 70000 nM with HLA-A*03:01 (setting [6]).

Take DTIESAKTK: the Kd turned out to be 11300 nM with HLA-A*31:01 (setting [1]); 3590 nM in the assay with HLA-A*33:01 (setting [1]); 5.82 nM with HLA-A*68:01 (setting [1]); 672 nM with HLA-A*11:01 (setting [1]); 4100 nM in the assay with HLA-A*03:01 (setting [1]).

Consider DVSMMSMYGK, for which the Kd in the assay with HLA-A*31:01 (setting [1]) came out at 231 nM; with HLA-A*33:01 (setting [1]), 584 nM; in the assay with HLA-A*68:01 (setting [1]), 1.21 nM; with HLA-A*11:01 (setting [1]), 1.28 nM; with HLA-A*03:01 (setting [1]), 149 nM.

With DWTDGSRGYR, the Kd with HLA-A*31:01 (setting [7]) worked out at 918 nM; in the assay with HLA-A*33:01 (setting [7]) it was 1170 nM.

Turning to DYMTSMKRFK, in the assay with HLA-A*33:01 (source organism: Dengue virus 1 Brazil/97-11/1997), the Kd was 21.2 nM.

EAKQPATLR: the Kd with HLA-A*33:01 (setting [4]) is 10.1 nM; with HLA-A*68:01 (setting [4]) it was 74.8 nM.

As to EANASAQTK, the Kd with HLA-A*31:01 (setting [1]) was at least 56300 nM; in the assay with HLA-A*33:01 (setting [1]), 12500 nM; in the assay with HLA-A*68:01 (setting [1]), 27.3 nM; in the assay with HLA-A*11:01 (setting [1]), 2600 nM; in the assay with HLA-A*03:01 (setting [1]), 1560 nM.

As for EASIQPITR, the Kd in the assay with HLA-A*68:01 (source organism: Homo sapiens) worked out at 50 nM.

Take EFLHYCNSY: the dissociation constant Kd is at least 37700 nM with HLA-A*31:01 (setting [1]); 6030 nM in the assay with HLA-A*33:01 (setting [1]); at least 24600 nM with HLA-A*68:01 (setting [1]); at least 31600 nM with HLA-A*11:01 (setting [1]); at least 78000 nM with HLA-A*03:01 (setting [1]).

On to EIMDKEQLLK, for which the Kd with HLA-A*31:01 (setting [1]) was at least 50900 nM; with HLA-A*33:01 (setting [1]), 9850 nM; with HLA-A*68:01 (setting [1]), 5.42 nM; with HLA-A*11:01 (setting [1]), 87.8 nM; with HLA-A*03:01 (setting [1]), 1320 nM.

As for EMGANFKADR, the Kd with HLA-A*33:01 (setting [3]) amounted to 1540 nM.

As to FKVAFSKHYK, the Kd is 48.3 nM with HLA-A*31:01 (setting [8]); 3190 nM with HLA-A*33:01 (setting [8]); 582 nM in the assay with HLA-A*68:01 (setting [8]); 2140 nM with HLA-A*11:01 (setting [8]); 279 nM with HLA-A*03:01 (setting [8]).

The record behind these values is the Immune Epitope Database (IEDB).
